We go through 24 molecules from patent US20260028421A1 (JIANGSU HENGRUI PHARMACEUTICALS, published 2026).

Substitutions are numbered along the chain they refer to.

First the molecules themselves.
B1: P1-F10 CHI (antibody, human IgG1, kappa, V domains shown)
VH: EVQLVESGGGLVKPGGSLKLSCAASGFAFSDYGMHWVRQAPEKGLEWVAHISSGSSTIYYADTVKGRFTISRDNVKNTLFLQMTSLRSEDTAMYYCARSRNYYGSRVFDYWGQGTPLTVSS
VL: QIVLTQSPALMSVSPGEKVTMTCSASSSVNYMYWYQQKPRSSPKPWIYLTSNLASGVPARFSGSGSGTSYSLTISSMEAEDAATYYCQQWNSNPPTFGSGTKLEIKR
notes: chimeric
B2: P1-D3 CHI (antibody, human IgG1, kappa, V domains shown)
VH: QIQLIQSGPELKKPGETVKISCKASGYTFTTYGMSWVKQAPGKGLKWMGWINTYSGVPTYADDFKGRFAFSLETSANTAYLQINNLKNEDTATYFCARRGYSNLYYYALDYWGQGASVTVSS
VL: QIVLTQSPAIMSASPGEKVTMTCSASSSVNYMHWYQQKSGTSPKRWIYDTSKLASGVPTRFSGSGSGTSYSLTISSMEAEDAATYFCQQWSSNPSTFGGGTKLEIKR
notes: chimeric
B3: P1-D2 CHI (antibody, human IgG1, kappa, V domains shown)
VH: EFQLQQSGPELVKPGASVKISCKASGYSFTDHNMNWVKQSNGKSLEWIGVINPKYGTISNNQKFKGKATLTVDQSSSTAYMQLNSLTAEDSAVYYCARDDYPNYFDYWGQGTTLTVSS
VL: QIVLTQSPAIMSASPGEKVTISCSANSSVNYIYWYQQKPGSSPKPWIYRTSNLASGVPARFSGSGSGTSYSLTISSMEAEDAATYYCQQYHSFPPTFGGGTKLEIKR
notes: chimeric
B4: HJ-3 (bispecific antibody)
chain 1: not shown
chain 2: DIQMTQSPSSVSASVGDRVTITCRASQDIANYLSWYQQKPGKSPKLLIYGTSNLEVGVPSRFSGSRSGTDFTLTISSLQPEDFATYYCLQDKEFPRTFGGGTKVEIKGGGGSSGAPRFLTRPLAFVVSVGKDATLSSQIVGNPTPQVSWEKDKQPVTAGARFRLAQDGDLYRLKILDLQLSDSGQYVSRARNAIGEAFACLGLQVDAEA
chain 3: EVQLVQSGAEVKKPGSSVKVSCKASGYTFSNYLIEWVRQAPGQGLEWIGVIDPGVGDTNYNENFKGRATLTADKSTSTAYIELSSLRSEDTAVYYCAREDNTGTAFDYWGQGTTVTVSSASTKGPSVFPLAPSSKSTSGGTAALGCLVKDYFPEPVTVSWNSGALTSGVHTFPAVLQSSGLYSLSSVVTVPSSSLGTQTYICNVNHKPSNTKVDKKVEPKSCDKTHTCPPCPAPEAAGGPSVFLFPPKPKDTLMISRTPEVTCVVVDVSHEDPEVKFNWYVDGVEVHNAKTKPREEQYNSTYRVVSVLTVLHQDWLNGKEYKCKVSNKALPAPIEKTISKAKGQPREPQVCTLPPSREEMTKNQVSLSCAVKGFYPSDIAVEWESNGQPENNYKTTPPVLDSDGSFFLVSKLTVDKSRWQQGNVFSCSVMHEALHNHYTQKSLSLSPGKDYKDDDDK
chain 4: SIVMTQTPLSLSVTPGQPASISCKASQSVSSDVTWYLQKPGQSPQLLIYYVSEHYTGVPDRFSGSGYGTDFTLKISRVEAEDVGVYYCQQHHRFPLTFGQGTKLEIKRTVAAPSVFIFPPSDEQLKSGTASVVCLLNNFYPREAKVQWKVDNALQSGNSQESVTEQDSKDSTYSLSSTLTLSKADYEKHKVYACEVTHQGLSSPVTKSFNRGEC
B5: HJ-6 (bispecific antibody)
chain 1: not shown
chain 2: B4 chain 2 with R121C, L123K, F125S, T144F, A160V, I194H
chain 3: EVQLVQSGAEVKKPGSSVKVSCKASGYTFSNYLIEWVRQAPGQGLEWIGVIDPGVGDTNYNENFKGRATLTADKSTSTAYIELSSLRSEDTAVYYCAREDNTGTAFDYWGQGTTVTVSSASTKGPSVFPLAPSSKSTSGGTAALGCLVKDYFPEPVTVSWNSGALTSGVHTFPAVLQSSGLYSLSSVVTVPSSSLGTQTYICNVNHKPSNTKVDKKVEPKSCDKTHTCPPCPAPEAAGGPSVFLFPPKPKDTLMISRTPEVTCVVVDVSHEDPEVKFNWYVDGVEVHNAKTKPREEQYNSTYRVVSVLTVLHQDWLNGKEYKCKVSNKALPAPIEKTISKAKGQPREPQVCTLPPSREEMTKNQVSLSCAVKGFYPSDIAVEWESNGQPENNYKTTPPVLDSDGSFFLVSKLTVDKSRWQQGNVFSCSVMHEALHNHYTQKSLSLSPGK
chain 4: B4 chain 4
B6: HJ-10 (bispecific antibody)
chain 1: not shown
chain 2: DIQMTQSPSSVSASVGDRVTITCRASQDIANYLSWYQQKPGKSPKLLIYGTSNLEVGVPSRFSGSRSGTDFTLTISSLQPEDFATYYCLQDKEFPRTFGGGTKVEIKRTVASSGAPRFLTRPKASVVSVGKDATLSCQIVGNPFPQVSWEKDKQPVTAGVRFRLAQDGDLYRLKILDLQLSDSGQYVCRARNAHGEAFACLGLQVDAEA
chain 3: B5 chain 3
chain 4: B4 chain 4
B7: HJ-8 (bispecific antibody)
chain 1: not shown
chain 2: B6 chain 2 with C137S, C188S
chain 3: B5 chain 3
chain 4: B4 chain 4
B8: HJ-5 (bispecific antibody)
chain 1: not shown
chain 2: B4 chain 2 with L123K, F125S, T144F, A160V, I194H
chain 3: B5 chain 3
chain 4: B4 chain 4
B9: HJ-9 (bispecific antibody)
chain 1: not shown
chain 2: B6 chain 2 with R121C, C137S, C188S
chain 3: B5 chain 3
chain 4: B4 chain 4
B10: HJ-7 (bispecific antibody)
chain 1: not shown
chain 2: B6 chain 2 with R108G, T109G, V110G, A111G
chain 3: B5 chain 3
chain 4: B4 chain 4
B11: HJ-11 (bispecific antibody)
chain 1: not shown
chain 2: B6 chain 2 with A115C
chain 3: B5 chain 3
chain 4: B4 chain 4
B12: PL-4 (bispecific antibody)
chain 1: not shown
chain 2: DIVLTQSPASLAVSPGQRATITCRASESVSIHGTHLMHWYQQKPGQPPKLLIYAASKLESGVPARFSGSGSGTDFTLTINPVEAEDTANYYCQQSFEDPLTFGQGTKLEIKGGGGSGIPPKIECLPIDISIDEGKVLTVASCFTGEPTPEVTWSTGGRKIHSQEQGRFHIENTDDSTTLTIKDVQKQDGGLYTLTLRNEFGSDSATVNIHIRSI
chain 3: not shown
chain 4: not shown
B13: PL-9 (bispecific antibody)
chain 1: not shown
chain 2: B12 chain 2 with V136C, C142A
chain 3: not shown
chain 4: not shown
B14: PL-5 (bispecific antibody)
chain 1: not shown
chain 2: B12 chain 2 with C142A
chain 3: not shown
chain 4: not shown
B15: PL-14 (bispecific antibody)
chain 1: not shown
chain 2: B12 chain 2 with G112R, G113T, G114V, G115A, C142A
chain 3: not shown
chain 4: not shown
B16: PL-10 (bispecific antibody)
chain 1: not shown
chain 2: B12 chain 2
chain 3: not shown
chain 4: not shown
B17: PL-15 (bispecific antibody)
chain 1: not shown
chain 2: B12 chain 2 with G112R, G113T, G114V, G115A, V136C, C142A
chain 3: not shown
chain 4: not shown
B18: PL-18 (bispecific antibody)
chain 1: not shown
chain 2: B12 chain 2 with G112R, G113T, G114V, G115A, V136C, C142A
chain 3: not shown
chain 4: not shown
B19: PL-7 (bispecific antibody)
chain 1: not shown
chain 2: B12 chain 2
chain 3: not shown
chain 4: not shown
B20: PL-13 (bispecific antibody)
chain 1: not shown
chain 2: B12 chain 2 with G112R, G113T, G114V, G115A
chain 3: not shown
chain 4: not shown
B21: PL-19 (bispecific antibody)
chain 1: not shown
chain 2: B12 chain 2 with G112R, G113T, G114V, G115A
chain 3: not shown
chain 4: not shown
B22: PL-12 (bispecific antibody)
chain 1: not shown
chain 2: B12 chain 2 with G112R, G113T, G114V, G115A, V136C, C142A
chain 3: not shown
chain 4: not shown
B23: PL-17 (bispecific antibody)
chain 1: not shown
chain 2: B12 chain 2 with G112R, G113T, G114V, G115A, C142A
chain 3: not shown
chain 4: not shown
B24: PL-11 (bispecific antibody)
chain 1: not shown
chain 2: B12 chain 2 with G112R, G113T, G114V, G115A, C142A
chain 3: not shown
chain 4: not shown

Chain of hCTLA4 (P16410 36-161 limits assumed): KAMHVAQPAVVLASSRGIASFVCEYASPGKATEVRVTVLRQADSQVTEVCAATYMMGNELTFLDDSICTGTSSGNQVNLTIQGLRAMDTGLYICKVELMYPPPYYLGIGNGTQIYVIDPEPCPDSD

The first assay concerns the target T1, hGUCY2C ECD-His (human, UniProt P25092 24-430).
T1 construct: also called human GUCY2C protein
The assay can be described thus: SPR Biacore, antibody captured. From the text: To test the affinity of the GUCY2C monoclonal antibodies of the present disclosure for GUCY2C, in this test example, the instruments Biacore 8K and Biacore T200 were used to detect the ability of the antibodies to bind to hGUCY2C-ECD-His (SEQ ID NO: 3). The specific method is as follows: The antibody was affinity-captured using a Protein A biosensor chip conjugated with an anti-human antibody, then a solution containing GUCY2C Protein flowed on the surface of the chip, and reaction signals were detected in real time with an instrument to obtain association and dissociation curves. After dissociation was completed for each cycle, the biosensor chip was washed with 10 mM glycine-hydrochloric acid (pH 1.5) for regeneration. Data fitting was performed using a 1:1 model.
B1 showed a Kd of 8.64 nM, an off-rate constant (koff) of 0.000279 s⁻¹ and a kon of 32300 M⁻¹ s⁻¹.

The molecule B2 displayed a dissociation constant (Kd) of 5.06 nM, an off-rate (koff) of 0.000233 s⁻¹ and a kon of 46000 M⁻¹ s⁻¹.

B3 displayed an equilibrium dissociation constant (Kd) of 0.92 nM, a koff of 0.00018 s⁻¹ and a kon of 195000 M⁻¹ s⁻¹.

The next assay addresses hTSLP (human, UniProt Q969D9 29-159). The assay can be described thus: ELISA.
As to B4, the EC50 is 3.23 nM.

In the case of B5, it took 2.88 nM to reach a half-maximal effect (EC50).

Consider B6, for which a half-maximal effect (EC50) was put at 3.17 nM.

Turning to B7, the half-maximal effective concentration (EC50) came out at 3.33 nM.

In turn, B8 returned an EC50 of 2.64 nM.

As for B9, the midpoint of the response, the EC50, lay at 3.18 nM.

For the molecule B10, the EC50 was 2.18 nM.

Take B11: the half-maximal effective concentration (EC50) is 3 nM.

Another assay has as its target hIL5 (human, UniProt P05113 20-134). Briefly: ELISA.
B4 had a concentration giving a half-maximal response (EC50) of 17.4 nM.

For the molecule B5, the EC50 stood at 37 nM.

B6 gave an EC50 of 20.8 nM.

The molecule B7 gave an EC50 of 18.7 nM.

Turning to B8, the 50% effective concentration (EC50) was 16 nM.

B9 gave an EC50 of 10.9 nM.

B10: the EC50 is 17.7 nM.

Regarding B11, a half-maximal response (EC50) required 9.46 nM.

The next assay addresses T2, Human GUCY2C protein on cells (HCT116/hGUCY2C, HT-55, T84, LS1034, LS174T) (human, UniProt P25092 24-1073).
T2 construct: also called GUCY2C on the cell surface
Briefly: flow cytometry on HCT116/hGUCY2C cells, PE anti-human IgG Fc secondary antibody.
B1: the “EC50 (read off the curve)” value was around 0.6 nM.

Turning to B2, the “EC50 (read off the curve)” value is around 1 nM.

For the molecule B3, the “EC50 (read off the curve)” value was around 0.7 nM.

The target of another assay is hPDL1 (human, UniProt Q9NZQ7 19-238). The assay can be described thus: ELISA.
Chain of hPDL1 (Q9NZQ7 19-238 limits assumed): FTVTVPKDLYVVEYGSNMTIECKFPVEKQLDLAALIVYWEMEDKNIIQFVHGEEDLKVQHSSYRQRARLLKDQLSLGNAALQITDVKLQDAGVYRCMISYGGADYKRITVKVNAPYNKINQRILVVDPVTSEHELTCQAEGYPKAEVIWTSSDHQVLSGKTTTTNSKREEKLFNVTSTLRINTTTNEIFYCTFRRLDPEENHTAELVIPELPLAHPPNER
With B12, the EC50 was found to be 0.7 nM.

Molecule B13 gave an EC50 of 0.6 nM.

Molecule B14 yielded an EC50 of 0.7 nM.

On to B15, for which a half-maximal response (EC50) required 1.3 nM.

Turning to B16, the EC50 came to 0.6 nM.

B17 displayed an EC50 of 1.4 nM.

As to B18, the EC50 was found to be 1.6 nM.

On to B19, for which a half-maximal response (EC50) required 0.5 nM.

Turning to B20, a half-maximal response (EC50) required 0.5 nM.

With B21, the response was half-maximal at 1.6 nM (EC50).

The molecule B22 displayed an EC50 of 0.5 nM.

In turn, B23 showed a half-maximal effective concentration (EC50) of 1.4 nM.

The molecule B24 returned a 50% effective concentration (EC50) of 0.6 nM.

The next assay addresses hCTLA4 (human, UniProt P16410 36-161). Briefly: ELISA.
B12 had an EC50 of 6.5 nM.

Turning to B13, the EC50 was determined as 5.5 nM.

Take B14: a half-maximal response (EC50) required 6.7 nM.

As for B15, the EC50 was found to be 6 nM.

In turn, B16 yielded an EC50 of 6.9 nM.

Molecule B17 registered a half-maximal effective concentration (EC50) of 3.2 nM.

In the case of B18, the 50% effective concentration (EC50) was 6.7 nM.

Turning to B19, the EC50 came out at 7.3 nM.

With B20, a half-maximal effect (EC50) was put at 4.4 nM.

Consider B21, for which the response was half-maximal at 6.5 nM (EC50).

Molecule B22 showed an EC50 of 8 nM.

B23 gave an EC50 of 6.2 nM.

In the case of B24, the half-maximal effective concentration (EC50) was 5.6 nM.
